Measured values from publication PMC9228142, “Going Retro, Going Viral: Experiences and Lessons in Drug Discovery from COVID-19”.

Biological target: nsp12 (RdRp catalytic subunit);nsp7;nsp8 (SARS-CoV-2;SARS-CoV-2;SARS-CoV-2, UniProt P0DTD1;P0DTD1;P0DTD1 4393-5324;3860-3942;3943-4140, ||)
Experiment: EMSA
Conditions: protein: recombinant;recombinant;recombinant; tags: untagged (SUMO fusion cleaved, Ni2+-NTA and SEC purified);;; copies: 1;1;2; label: 5'-Cyanine 5.5

**Q.** Does AAAAGAAAAGACGCGUAGUUUUCUACGCG (structured_RNA) [GA1 RNA scaffold] bind?
**A.** binds
